Assay [1] deals with T1, Recombinant Cx43CT (carboxyl terminal domain of rat connexin43, residues 255-382, preceded by GPLG) (rat, UniProt P08050 255-382).
T1 construct: range 255-382; Made as a GST fusion in E. coli and cleaved from GST; 15N-labelled for NMR; also called recombinant CT; carboxyl terminal domain of Cx43
In words: SPR, Cx43CT immobilised, peptide 250 µM and higher. The method, then:
II: Applications to Biological Systems,” Biochim. Biophys. Acta 1331(2):131-152 (1997), which is hereby incorporated by reference in its entirety). Specific peptides were presented and, when feasible, dissociation constants (KD) were calculated from the time course of binding and unbinding of the ligand, using a 1:1 (Langmuir) association and dissociation kinetic model (Biacore software package). In both phases (association and dissociation), the first 5-8 seconds of recording were not included in the fit, to avoid artifacts resulting from peptide distribution within the flow cells (Lang et al., “Surface Plasmon Resonance as a Method to Study the Kinetics and Amplitude of Protein-protein Binding,” in PRACTICAL METHODS IN CARDIOVASCULAR […] 936-947 (Stefan Dhein, Friedrich Wilhelm Mohr & Mario Delmar eds., 2005), which is hereby incorporated by reference in its entirety).
Phage display allows for the rapid screening of thousands of peptides, but the characteristics of binding cannot be properly defined. Furthermore, the peptides are part of a capsid protein, which may affect the ability of the peptide to properly interact with the target protein. […] Higher concentrations of the peptide were tested but an asymptotic maximum response could not be detected.
For orientation: Surface plasmon resonance follows binding to a sensor surface in real time, without labels.

The target of assay [2] is Cx43 expressed in N2a (neuroblastoma) cells. Kind of assay: cell-based or functional assay.

T1 sequence (P08050 other isoform, or with tags, fused parts or gaps limits assumed): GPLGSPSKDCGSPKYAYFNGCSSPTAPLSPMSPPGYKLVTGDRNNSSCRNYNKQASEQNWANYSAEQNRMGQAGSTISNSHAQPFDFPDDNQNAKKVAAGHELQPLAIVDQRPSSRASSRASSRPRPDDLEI

B1: RXP4 (peptide)
peptide: RRPPYRVPPKLF
notes: Synthetic 12-mer from the non-biased phage display screen
With B1, the binding result in assay [1] was “binds”.

B2: RXP-E (peptide)
peptide: SDDLRSPQLHNGGGSAVPFYSHSHMVRRKPRNPR
For the molecule B2, in assay [2], the “junctional conductance (Gj) relative to control during octanol superfusion, RXP-E 0.1 mM in the pipette” value is 57.6 % of control and the “junctional conductance (Gj) relative to control with pipette solution at pH 6.2, RXP-E in the pipette” value was 57 % of control.

The values are drawn from patent US20120101255A1 (published 2012).
